The results in this text go back to publication PMC8060857.

In this assay the target is HR-C1 peptide (SARS-CoV (Urbani strain)) (UniProt P59594). The assay is described as follows: SDS-PAGE of samples not heated.

Consider “HR-C1 peptide (from UniProt P59594 1147-1185)”, for which the stoichiometry N – broadly, the number of molecules, sites or subunits per partner or assembly – was 3.
